B1: GpH7-A5/GpH7-B3 variant S337_14T/GpL16-k0 (antibody, human IgG1, kappa)
heavy 1: not shown
heavy 2: not shown
light: DIVMTQSPLSLPVTPGEPASISCQASESLVHSNRNTYLHWYLQKPGQSPQLLIYKVSNRFSGVPDRFSGSGSGTDFTLKISRVEAEDVGVYYCSQNTHVPPTFGQGTKVEIERTVAAPSVFIFPPSDEQLKSGTASVVCLLNNFYPREAKVQWKVDNALQSGNSQESVTEQDSKDSTYSLSSTLTLSKADYEKHKVYACEVTHQGLSSPVTKSFNRGEC
notes: heterodimerized antibody, mutation in one H chain only; also called S337_14T He Ab
B2: GpH7-A5/GpH7-B3 variant S267_10E/GpL16-k0 (antibody, human IgG1, kappa)
heavy 1: not shown
heavy 2: not shown
light: DIVMTQSPLSLPVTPGEPASISCQASESLVHSNRNTYLHWYLQKPGQSPQLLIYKVSNRFSGVPDRFSGSGSGTDFTLKISRVEAEDVGVYYCSQNTHVPPTFGQGTKVEIERTVAAPSVFIFPPSDEQLKSGTASVVCLLNNFYPREAKVQWKVDNALQSGNSQESVTEQDSKDSTYSLSSTLTLSKADYEKHKVYACEVTHQGLSSPVTKSFNRGEC
notes: heterodimerized antibody, mutation in one H chain only; also called S267_10E He Ab
B3: GpH7-A5/GpH7-B3 variant P271_18N/GpL16-k0 (antibody, human IgG1, kappa)
heavy 1: not shown
heavy 2: not shown
light: DIVMTQSPLSLPVTPGEPASISCQASESLVHSNRNTYLHWYLQKPGQSPQLLIYKVSNRFSGVPDRFSGSGSGTDFTLKISRVEAEDVGVYYCSQNTHVPPTFGQGTKVEIERTVAAPSVFIFPPSDEQLKSGTASVVCLLNNFYPREAKVQWKVDNALQSGNSQESVTEQDSKDSTYSLSSTLTLSKADYEKHKVYACEVTHQGLSSPVTKSFNRGEC
notes: heterodimerized antibody, mutation in one H chain only; also called P271_18N He Ab
B4: GpH7-A5/GpH7-B3 variant S337_18N/GpL16-k0 (antibody, human IgG1, kappa)
heavy 1: not shown
heavy 2: not shown
light: DIVMTQSPLSLPVTPGEPASISCQASESLVHSNRNTYLHWYLQKPGQSPQLLIYKVSNRFSGVPDRFSGSGSGTDFTLKISRVEAEDVGVYYCSQNTHVPPTFGQGTKVEIERTVAAPSVFIFPPSDEQLKSGTASVVCLLNNFYPREAKVQWKVDNALQSGNSQESVTEQDSKDSTYSLSSTLTLSKADYEKHKVYACEVTHQGLSSPVTKSFNRGEC
notes: heterodimerized antibody, mutation in one H chain only; also called S337_18N He Ab
B5: GpH7-A5/GpH7-B3 variant Q295_12R/GpL16-k0 (antibody, human IgG1, kappa)
heavy 1: not shown
heavy 2: not shown
light: DIVMTQSPLSLPVTPGEPASISCQASESLVHSNRNTYLHWYLQKPGQSPQLLIYKVSNRFSGVPDRFSGSGSGTDFTLKISRVEAEDVGVYYCSQNTHVPPTFGQGTKVEIERTVAAPSVFIFPPSDEQLKSGTASVVCLLNNFYPREAKVQWKVDNALQSGNSQESVTEQDSKDSTYSLSSTLTLSKADYEKHKVYACEVTHQGLSSPVTKSFNRGEC
notes: heterodimerized antibody, mutation in one H chain only; also called Q295_12R He Ab
B6: GpH7-A5/GpH7-B3 variant S267_14T/GpL16-k0 (antibody, human IgG1, kappa)
heavy 1: not shown
heavy 2: not shown
light: DIVMTQSPLSLPVTPGEPASISCQASESLVHSNRNTYLHWYLQKPGQSPQLLIYKVSNRFSGVPDRFSGSGSGTDFTLKISRVEAEDVGVYYCSQNTHVPPTFGQGTKVEIERTVAAPSVFIFPPSDEQLKSGTASVVCLLNNFYPREAKVQWKVDNALQSGNSQESVTEQDSKDSTYSLSSTLTLSKADYEKHKVYACEVTHQGLSSPVTKSFNRGEC
notes: heterodimerized antibody, mutation in one H chain only; also called S267_14T He Ab
B7: GpH7-A5/GpH7-B3 variant P271_01G/GpL16-k0 (antibody, human IgG1, kappa)
heavy 1: not shown
heavy 2: not shown
light: DIVMTQSPLSLPVTPGEPASISCQASESLVHSNRNTYLHWYLQKPGQSPQLLIYKVSNRFSGVPDRFSGSGSGTDFTLKISRVEAEDVGVYYCSQNTHVPPTFGQGTKVEIERTVAAPSVFIFPPSDEQLKSGTASVVCLLNNFYPREAKVQWKVDNALQSGNSQESVTEQDSKDSTYSLSSTLTLSKADYEKHKVYACEVTHQGLSSPVTKSFNRGEC
notes: heterodimerized antibody, mutation in one H chain only; also called P271_01G He Ab
B8: GpH7-A5/GpH7-B3 variant S324_10E/GpL16-k0 (antibody, human IgG1, kappa)
heavy 1: not shown
heavy 2: not shown
light: DIVMTQSPLSLPVTPGEPASISCQASESLVHSNRNTYLHWYLQKPGQSPQLLIYKVSNRFSGVPDRFSGSGSGTDFTLKISRVEAEDVGVYYCSQNTHVPPTFGQGTKVEIERTVAAPSVFIFPPSDEQLKSGTASVVCLLNNFYPREAKVQWKVDNALQSGNSQESVTEQDSKDSTYSLSSTLTLSKADYEKHKVYACEVTHQGLSSPVTKSFNRGEC
notes: heterodimerized antibody, mutation in one H chain only; also called S324_10E He Ab
B9: GpH7-A5/GpH7-B3 variant P271_08L/GpL16-k0 (antibody, human IgG1, kappa)
heavy 1: not shown
heavy 2: not shown
light: DIVMTQSPLSLPVTPGEPASISCQASESLVHSNRNTYLHWYLQKPGQSPQLLIYKVSNRFSGVPDRFSGSGSGTDFTLKISRVEAEDVGVYYCSQNTHVPPTFGQGTKVEIERTVAAPSVFIFPPSDEQLKSGTASVVCLLNNFYPREAKVQWKVDNALQSGNSQESVTEQDSKDSTYSLSSTLTLSKADYEKHKVYACEVTHQGLSSPVTKSFNRGEC
notes: heterodimerized antibody, mutation in one H chain only; also called P271_08L He Ab
B10: GpH7-A5/GpH7-B3 variant P271_19Q/GpL16-k0 (antibody, human IgG1, kappa)
heavy 1: not shown
heavy 2: not shown
light: DIVMTQSPLSLPVTPGEPASISCQASESLVHSNRNTYLHWYLQKPGQSPQLLIYKVSNRFSGVPDRFSGSGSGTDFTLKISRVEAEDVGVYYCSQNTHVPPTFGQGTKVEIERTVAAPSVFIFPPSDEQLKSGTASVVCLLNNFYPREAKVQWKVDNALQSGNSQESVTEQDSKDSTYSLSSTLTLSKADYEKHKVYACEVTHQGLSSPVTKSFNRGEC
notes: heterodimerized antibody, mutation in one H chain only; also called P271_19Q He Ab
B11: GpH7-A5/GpH7-B3 variant S267_18N/GpL16-k0 (antibody, human IgG1, kappa)
heavy 1: not shown
heavy 2: not shown
light: DIVMTQSPLSLPVTPGEPASISCQASESLVHSNRNTYLHWYLQKPGQSPQLLIYKVSNRFSGVPDRFSGSGSGTDFTLKISRVEAEDVGVYYCSQNTHVPPTFGQGTKVEIERTVAAPSVFIFPPSDEQLKSGTASVVCLLNNFYPREAKVQWKVDNALQSGNSQESVTEQDSKDSTYSLSSTLTLSKADYEKHKVYACEVTHQGLSSPVTKSFNRGEC
notes: heterodimerized antibody, mutation in one H chain only; also called S267_18N He Ab

T1 sequence (P12314 16-292): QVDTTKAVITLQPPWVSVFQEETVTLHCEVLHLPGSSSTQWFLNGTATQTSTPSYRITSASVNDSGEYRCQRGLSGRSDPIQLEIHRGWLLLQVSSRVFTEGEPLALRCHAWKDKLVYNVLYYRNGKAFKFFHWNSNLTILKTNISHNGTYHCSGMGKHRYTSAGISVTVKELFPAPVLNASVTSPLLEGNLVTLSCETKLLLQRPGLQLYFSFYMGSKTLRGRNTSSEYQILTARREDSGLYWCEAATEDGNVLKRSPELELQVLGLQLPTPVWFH

The test concerns the target T1, FcγRIa extracellular domain with C-terminal His tag (human, UniProt P12314 16-292).
T1 construct: extracellular domain; soluble analyte in Biacore; also called FcgRI; CD64
Nature of the test: SPR (Biacore), relative FcγRIa binding, GpH7-A5/GpH7-B3/GpL16-k0 (HeCon Ab) = 100.
B1: the He/Con_1a is 105 % of control.

Regarding B2, the He/Con_1a is 106 % of control. Then B3, with 103 % of control; and B4, with 105 % of control. In the case of B5 it was 100 % of control; in that of B6, 102 % of control.

For B7, the He/Con_1a is 105 % of control. In the case of B8 it was 105 % of control; in that of B9, 102 % of control; in that of B10, 103 % of control.

Take B11: the He/Con_1a was 102 % of control.

Values taken from patent publication US20180155451A1 (published 2018).
